Measurements from patent publication JP2008058208A.

Target: T1, C−反応性タンパク(CRP), ヒトCRP抗原 (human) (UniProt P02741)
T1 sequence (looked up): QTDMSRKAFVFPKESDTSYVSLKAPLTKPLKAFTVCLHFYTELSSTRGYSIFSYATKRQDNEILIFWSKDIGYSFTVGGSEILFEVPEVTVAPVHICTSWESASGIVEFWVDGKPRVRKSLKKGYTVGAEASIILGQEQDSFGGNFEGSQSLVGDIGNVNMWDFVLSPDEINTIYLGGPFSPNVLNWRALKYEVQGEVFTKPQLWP
Assay: sandwich immunochromatography, His20 as capture and as gold-colloid label, read by eye after 15 min

lowest detectable CRP concentration: 1 ng/mL
B1: 抗CRPscFv抗体No.20 (His-tagged scFv, His20) (scFv, not shown: small tags and cut ends)
scFv: MAQVKLPESGAELVKPGASVKLSCTPSGFNIKDTYIHWVRQRPGQGLEWIGRIDPANGHTRYAPKFQGKATLTADASSNTAYLHLSSLTSEDTAVYYCPRIVWYSGGYAMDYWGQGTTVTVSSGGGGSGGGGSGGGGSDIELTQSPSSMYASLGERVTITCKASQDINSYLSWFQQKPGKSPKTLIYRANRLVDGVPSRFSGSGSGQDYSLTISSLKYEDMGIYYCLQYDEFPLTFGGGTKLEIKRAA
